Results from the supplement of paper PMC10567573.
± gives the standard deviation.

Assay: protein stability index of a GFP-peptide fusion (GPS, HEK-293T) (PSI 1-6); higher = more stable
[1] = treatment: DMSO, c terminus: a fixed tail appended
[2] = treatment: MLN4924 1 uM, 8 h, c terminus: a fixed tail appended
[3] = treatment: DMSO, c terminus: native
[4] = treatment: MLN4924 1 uM, 8 h, c terminus: native
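Also: 24-mer peptide tiles fused after GFP, lentivirally expressed, FACS-sorted into six equal bins by GFP/DsRed ratio, decoded by Illumina sequencing, PSI is the read-weighted mean bin number.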

Sequence | protein stability index [1] | protein stability index [2] | protein stability index [3] | protein stability index [4]
LLQNEFVGFMWRQRGRVISLWERL [MCOLN1] | 2.7 ± 0.19 | 2.68 ± 0.26 | – | –
QIKRKARNEGRNRRRQQVLPLKS [CDKL4] | – | – | 2.87 ± 0.24 | 3.44 ± 0.35
GCLENMPEADCIPKEQLSTSFQWV [PLK2] | 3.57 ± 0.2 | 3.45 ± 0.36 | – | –
RHMREENLRLQRKLQREMERREAL [CCDC6] | 3.96 ± 0.36 | 4.39 ± 0.15 | – | –
RLLELMNQHDTEMKYYIVHLKRHF [DYRK1B] | 2.35 ± 0.22 | 2.54 ± 0.48 | – | –
KAKANGITMYAVGVGKAIEEELQE [MATN2] | 3.83 ± 0.33 | 4.12 ± 0.32 | – | –
TTFQDVYFVSESFEDAKEKMREFT [TPH1] | 3.61 ± 0.2 | 3.58 ± 0.29 | – | –
EEQSDQSFSSLEPDNEQLMEEVIS [IQUB] | 5.34 ± 0.27 | 5.61 ± 0.18 | – | –
QGTELWVAERGTTQGCHPAWEPRS [ZNF8] | 3.24 ± 0.16 | 3.1 ± 0.27 | – | –
RELRKPEEPENGEPTAAATARRSK [PWWP2B] | 5.54 ± 0.16 | 5.51 ± 0.35 | – | –
FSSSSQEAFAASAVGSGERRGGGP [ZBTB22] | 3.66 ± 0.32 | 4.03 ± 0.34 | – | –
HSLEYIDLMETTQYMNEGELRVLA [HDAC6] | 2.79 ± 0.4 | 3.04 ± 0.34 | – | –
HNIPLETIIPILQHLKYKEHPEAL [INTS3] | 2.51 ± 0.31 | 2.55 ± 0.38 | – | –
RVEASHLTTSQERELGIRQRDEQL [FBF1] | 4.91 ± 0.22 | 5.13 ± 0.22 | – | –
LTICYPEYAGSNTYEEAAAYIQCQ [GNAI1] | 2.46 ± 0.25 | 2.43 ± 0.46 | – | –
GRAQDDVSEWASKAKANGITMYAV [MATN2] | 2.56 ± 0.36 | 2.62 ± 0.39 | – | –
YCRLKKCLKVGMRREAVQRGRMPP [NR2F2] | 2.84 ± 0.39 | 2.77 ± 0.26 | – | –
GEVVTESQKEQRSELDKSSAHSY [PRPH] | – | – | 5.67 ± 0.24 | 5.77 ± 0.1
DRLQVFHKRAIMPYGVYKKQQKDP [ATE1] | 3.17 ± 0.39 | 3.34 ± 0.22 | – | –
SATLSWKQPPLSTVPADGYILELD [TRIM9] | 3.52 ± 0.33 | 3.63 ± 0.37 | – | –
AWETKKILAVSFAPLIQPCHSESG [PCMTD2] | 2.35 ± 0.2 | 2.54 ± 0.35 | – | –
QGIYEEYEDIRRENPVGTFHCSMS [PTPN9] | 3.84 ± 0.28 | 3.98 ± 0.26 | – | –

Sequence | protein stability index [1] | protein stability index [2] | protein stability index [3] | protein stability index [4]
EKVNEGKYRSYEEFKADAQLLLHN [ZMYND11] | 4.1 ± 0.13 | 3.79 ± 0.28 | – | –
QTYFRQNRDEVLDNLLAFVCDIRP [ATP6V1G1] | 2.64 ± 0.44 | 2.27 ± 0.23 | – | –
DILVLLGASLYAISNVCEEYIVKK [SLC35F2] | 3.41 ± 0.61 | 2.89 ± 0.47 | – | –
ALHIIVQYNRPISDFLTLHSIIIS [FEM1B] | 3.03 ± 1 | 2.37 ± 0.56 | – | –
HSIIISLVEAGAHTDMTNKQNKTP [FEM1B] | 2.46 ± 0.49 | 2.63 ± 0.32 | – | –
VTSIPSVSDSLTWREFHYIQSKLG [STEAP1] | 2.66 ± 0.24 | 2.69 ± 0.18 | – | –
KLQVSQQEDITKSLLVTELGSSRT [IMPA1] | 4.18 ± 0.28 | 4.28 ± 0.25 | – | –
PFFFTGAFPFNMQELVLKVRIQNP [ANKRD40] | 2.27 ± 0.042 | 1.99 ± 0.61 | – | –
SAARVVLTSLLACLPAGPRVYFLK [DUSP5] | 2.43 ± 0.23 | 2.41 ± 0.12 | – | –
DVTSLSSQLPDTPNSMVPSPVET [ISL2] | – | – | 4.24 ± 0.1 | 4.39 ± 0.34
IACYVMKHYRFTHAEIIAWIRICR [CDC14A] | 2.37 ± 0.72 | 2.24 ± 0.53 | – | –
MERVNETVVREVIFLGFSSLARLQ [OR10K2] | 2.64 ± 0.65 | 2.4 ± 0.5 | – | –
FVEYCDVNNDKSISVQELMGCLGV [SMOC2] | 2.39 ± 0.86 | 2.46 ± 0.38 | – | –
AKKKRLTKADIGTPSNFQHIGHVG [WASL] | 3.52 ± 0.3 | 3.67 ± 0.18 | – | –
LVQLRGRLTSQDWERVHLIVAGGY [ALG2] | 2.03 ± 0.62 | 2.44 ± 0.58 | – | –
EVKIRDWHLKQSPASPERDYSPYY [KRT13] | 3.34 ± 0.38 | 3.35 ± 0.47 | – | –
ESPSFLSLRKGASLSNGQGSRVLH [NCK2] | 3.83 ± 0.27 | 3.92 ± 0.16 | – | –
AGPGGGAERRRAGRLLLTLPLLRQ [ESRRA] | 2.53 ± 0.29 | 2.84 ± 0.21 | – | –
GYSPNGRDANGWTLLHFSAARGKE [ASB7] | 2.91 ± 0.47 | 2.94 ± 0.19 | – | –
RVRVELQEQNGRLQAELAAQEALR [LRRC45] | 4.58 ± 0.079 | 3.98 ± 0.55 | – | –
CPECYPDNPANRSLVLPWSFPLEW [TOR1AIP2] | 2.5 ± 0.28 | 2.77 ± 0.24 | – | –
GGAGSGFGGGYGGGLGGGYGGGLG [KRT13] | 3.35 ± 0.2 | 2.85 ± 0.2 | – | –
